Results reported in the RNAGym collection of RNA variant scans (doi:10.7554/elife.80360).

B1: Hairpin Ribozyme (parent)
chain: GUCCUCUUUCACGUGCGCGUGAAAGAGAGAAGUGAACCAGAGAAACACACGUUGUGGUAUAUUACCUGGUA

Variants of: B1
Assay: self-cleavage, relative activity (ratio to wild type); higher = more cleavage; co-transcriptional

Variant	self-cleavage
C38U U63A	0.141
C38A C46G	0.133
A39G A43U	0.141
A36G U67A	0.195
C37G U63C	0.154
C37A U62A	0.133
C37U A45C	0.109
C37U A45U	0.11
A36U C46A	0.0951
A36U C46G	0.0439
C37G A43U	0.177
C37G A43C	0.108
C37G A43G	0.261
C37A A49C	0.0162
C37A A49G	0.325
C38U A41G	0.648
C38U A41U	0.742
C38U A41C	0.619
C37A C66G	0.105
C37A C66A	0.0612
C37A C66U	0.179
A39C C66U	0.306
A39C C66G	0.0809
A36U A39C	0.084

Variant	self-cleavage
A36G U63G	0.3
A39U U53A	0.233
A39C G69U	0.147
A39C G69C	0.188
C38U C65A	0.453
C38A G69U	0.0684
C37U U55G	0.159
C37U U55A	0.143
C37U U55C	0.172
C38G A47U	0.171
A39G C66G	0.0926
C37U A39G	0.269
A39C U62C	0.161
A39U G42U	0.172
C37U G56C	0.198
C37U G56U	0.13
C38U U55C	0.231
A39G C65U	0.263
C38G U55A	0.288
C38G U55G	0.193
C37U C46U	0.198
A39G A49G	0.116
A36G U60G	0.62
A36G U60A	0.779

Variant	self-cleavage
A36G U60C	1.1
A36U A71C	0.959
A39U G54C	0.0503
C37U A71G	0.779
A39G A45G	0.0935
A36U A44G	0.183
A36U A44C	0.112
C37U A43C	0.126
C37U A43U	0.0491
C38G G69C	0.241
C38G G69U	0.155
C38G G69A	0.196
C38U A64U	0.301
C38A C50G	0.089
C37G A39G	0.328
C37G A39U	0.0635
C37G G51A	0.647
C38G A44C	0.17
C38G A44G	0.335
A39U A41G	0.644
C37A A64C	0.144
A39G G56U	0.0978
A39G G56A	0.147
A36U U52C	0.765

Variant	self-cleavage
A36U U52A	0.303
A36U U52G	0.466
C38U U60C	0.759
C38U U60A	0.428
C38U A49C	0.245
A39U A47G	0.158
C37A U53G	0.23
C38A U62A	0.218
A39G U60C	0.424
C38A U58C	0.181
A39U U60A	0.345
C38U G40U	0.101
A39U U52C	0.378
A39C C50U	0.156
C37A G57C	0.158
C37A U67A	0.197
C37A U67G	0.202
C38G G40A	0.148
C38G G40U	0.169
C37A U63G	0.131
C37A G42C	0.16
A36U U60A	0.487
A36U A47G	0.172
A36U A47U	0.141

Variant	self-cleavage
C37G A71U	0.216
C37G A71C	0.784
C38G U58C	0.185
C38G U58G	0.175
C38G U58A	0.139
C37G A41U	0.541
A39G A71U	0.176
A39G A71C	0.303
C38G U53C	0.196
C38G U53G	0.206
C37A U58A	0.235
C38U G57A	0.229
C37G U60C	0.331
C37U C66U	0.264
A36G U62G	0.221
C37G C66G	0.154
C38G U70G	0.216
A39U G51U	0.632
A39C U67A	0.272
C38A G40A	0.139
C38G U60G	0.146
C38G G57C	0.103
C37A A45G	0.0956
A36U C66A	0.114

Variant	self-cleavage
A39C G51C	0.324
C37G U70A	0.488
A39C U53A	0.549
A39G U67A	0.126
A39C A49C	0.151
A39C A49U	0.12
A39G G42A	0.114
C38A U63A	0.0537
C38A U63G	0.165
A39C C48U	0.145
C38A A44C	0.108
C37G G40U	0.186
A36U C50G	0.0987
A36U C50U	0.125
C38A G51U	0.195
C38A C65G	0.104
C38A C65U	0.204
C37G G69C	0.984
C37G G69A	0.346
C37A G69U	0.777
C38U A44C	0.0457
C38U A44U	0.135
C38U U70C	0.268
A39C U52C	0.56

Variant	self-cleavage
C37U U58C	0.743
C37A A47G	0.0917
C37U A44U	0.173
C38A G56U	0.179
C38U G42A	0.132
A39G C48A	0.0878
C38G U67C	0.119
A36U G56A	0.0631
A36U G56C	0.131
A36U G51A	0.508
C37U A49G	0.508
C37U A49C	0.0924
A39U A49U	0.0838
A39U A49C	0.145
A39U G69A	0.157
A39U G69C	0.073
A39U G69U	0.151
A39G G54U	0.163
C37U C48A	0.12
C38U G54C	0.235
C38U G54U	0.336
C38G C46U	0.116
C38G C46A	0.148
